Test results taken from patent US12139531B2, “Compositions and methods useful in promoting milk production” (The Regents of the University of California, priority 2019, dated 2024).
Entries after “also recorded” stand apart in the source; their conditions may differ.

Columns and labels:
[1] = system: bovine alveolar progenitor cells (AVPs); experiment: Organoid growth of FACS-purified bovine alveolar progenitor cells in Matrigel; format: cell-based; details: single cells in Matrigel, 10 days, vs untreated controls
Method: The influence of ROBO1 ECD fragments in vitro on primary alveolar progenitor cell growth and in vivo on branching morphogenesis was tested. FACS-purified murine and bovine alveolar progenitor cells (AVPs) were plated as single cells in Matrigel and grown for 10 days in the absence and presence of ROBO1-ECDs fragments (FIGS. 9A, B). […] ROBO1-Ig5 fragments were also tested in vivo by subcutaneously injecting them (7.5 mammary gland/kg/day) into ovariectomized animals that were orally administered hormones in Nutella: estrogen (E, 1 μg/day), progesterone (P, 1 mg/day mammary gland/day) and prolactin (Prl, 0.2 mg/day mammary gland/day) (FIG. 9C). The mammary glands were harvested after 14 days of ROBO1-Ig5 fragment treatment, carmine stained and evaluated. […] Other aspects can involve ROBO1-ECD constructs that are tagged with the murine-Fc sequence. This tag is recognized by an endogenous receptor that facilitates transport into tissues 4.
FACS purified AVPs were cultured in Matrigel (BD Bioscience) at a density of 5000 cell/100 uL and cultured in basal medium; DMEM: F12 phenol-free, 10 mM HEPES, N2 (Gibco), B27 (Gibco) supplemented with 100 ng/mL Neuregulin (R&D), 42.5 ng/mL R-Spondin1 (Peprotech) […]. […]

NOTCH4 = experiment: Cell fractionation and Western blot for HES1 and NOTCH4-ICD in HC11 cells; format: cell-based, mouse; details: HC11 cells treated during differentiation
Method: Notch receptor activation can be regulated through direct interactions with binding partners^24. […] To address this possibility, co-immunoprecipitation experiments were performed using MBA-MD-231 cells lysates, which express detectable levels of all four Notch receptors (NOTCH1-4). Endogenous ROBO1 co-immunoprecipitated with NOTCH4, but not […], NOTCH2 or NOTCH3 (FIG. 3H and data not shown). Next, the expression and subcellular localization of the NOTCH4 intracellular domain (N4-ICD) and HES1 was examined in control (Scr) and Robo1 (siR1) knockdown HC11 cells. Expression of Robo1 was inhibited in HC11 cells that were then primed for differentiation as described above. […] This effect was not observed in control Robo1 knockdown cells engineered to overexpress Robo1 (siR1+o/e) or cells treated with the γ-secretase inhibitor GSI (siR1+GSI) (FIGS. 3I-3K).
To examine the effects of ROBO1-ECD fragments on Notch signaling, HC11 cells were treated with ROBO1-ECD fragments and Notch effector expression assessed. […] In addition, HC11 cells were treated with ROBO-Ig5 during differentiation. These cells were then fractionated and a Western blot performed to detect HES1 and NOTCH4-ICD (FIG. 8B).
(§1) Protein lysates were prepared by directly lysing adherent cells in 1× sample buffer supplemented with 5% beta-mercaptoethanol and boiled for 5 minutes. Protein lysate was resolved by SDS-PAGE and transferred to a PVDF for 90 minutes at 400 mA or overnight at 30 mA. Primary antibodies were used at the concentration indicated in Table 1 and incubated overnight at 4° C. HRP conjugated secondary antibodies (Jackson Labs) were used at 1:3000 and incubated for 45 minutes at room temp. All proteins were detected using Clarity ECL (BioRad) using a BioRad Chemi-Doc MP Imager and quantified using ImageLab software as previously described a.

mammary gland = experiment: Subcutaneous injection into ovariectomized, hormone-treated mice; carmine-stained mammary gland branching; format: in vivo; details: 14 days, ovariectomized animals given E, P, Prl
Method: The influence of ROBO1 ECD fragments in vitro on primary alveolar progenitor cell growth and in vivo on branching morphogenesis was tested. FACS-purified murine and bovine alveolar progenitor cells (AVPs) were plated as single cells in Matrigel and grown for 10 days in the absence and presence of ROBO1-ECDs fragments (FIGS. 9A, B). […] ROBO1-Ig5 fragments were also tested in vivo by subcutaneously injecting them (7.5 mammary gland/kg/day) into ovariectomized animals that were orally administered hormones in Nutella: estrogen (E, 1 μg/day), progesterone (P, 1 mg/day mammary gland/day) and prolactin (Prl, 0.2 mg/day mammary gland/day) (FIG. 9C). The mammary glands were harvested after 14 days of ROBO1-Ig5 fragment treatment, carmine stained and evaluated. […] Other aspects can involve ROBO1-ECD constructs that are tagged with the murine-Fc sequence. This tag is recognized by an endogenous receptor that facilitates transport into tissues 4. Mouse mammary glands were surgically dissected, spread onto a glass slide, and fixed in Carnoy's solution (25% glacial acetic acid and 75% ethanol). […] C57BL mice (8-10 weeks old) were bilaterally ovariectomized and allowed to recover for 1 week^47. During the recovery, mice were trained with oral administration Nuttella. Mice were fed Nutella mixed with 17beta-estradiol (E, 1 μg, Sigma)+progesterone (P, 1 mg, Sigma) for three weeks (daily). For ROBO1-Ig5 ECD, prolactin (Prl, 200 μg, NHPP) was given by Nutella oral administration over one week (daily), starting after 1 week E+P. For ROBO2 mAb, prolactin (Prl, 50 μg) was injected by intraperitoneal injection over 2.5 weeks (daily), starting after 1 week E+P. ROBO1-Ig5 ECD was injected subcutaneously (7.5 mg/kg ROBO1-Ig5 ECD or PBS; daily) over the 2 weeks period, starting after 1 week of E+P. ROBO2 mAbs or IgG isotype control mAbs ([…]) were injected subcutaneously twice/week over 17 days, starting after 1 week of E+P^48.

HC11 cells = experiment: Western blot analysis of WAP and PLIN2 in HC11 cells; format: cell-based, mouse; details: ECD titration
Method: To determine whether the promotion of dome formation also results in higher milk production, HC11 cells were differentiated in the presence or absence of ROBO1-ECD fragments that were added to cells simultaneously with DIP media. Cells were harvested and the expression of WAP and Lalba assessed by RT-qPCR. […] WAP expression levels were not increased in cells treated with DCC-Ig4 (FIG. 7K). Next, Western blot analysis of WAP and PLIN2 was performed on cells treated with ROBO1-Ig5 and ROBO1-Ecto.
as §1

B1: ROBO1-Ig5: recombinant soluble ROBO1 ECD construct comprising all five Ig domains (protein)
chain: SRLRQEDFPPRIVEHPSDLIVSKGEPATLNCKAEGRPTPTIEWYKGGERVETDKDDPRSHRMLLPSGSLFFLRIVHGRKSRPDEGVYICVARNYLGEAVSHNASLEVAILRDDFRQNPSDVMVAVGEPAVMECQPPRGHPEPTISWKKDGSPLDDKDERITIRGGKLMITYTRKSDAGKYVCVGTNMVGERESEVAELTVLERPSFVKRPSNLAVTVDDSAEFKCEARGDPVPTVRWRKDDGELPKSRYEIRDDHTLKIRKVTAGDMGSYTCVAENMVGKAEASATLTVQEPPHFVVKPRDQVVALGRTVTFQCEATGNPQPAIFWRREGSQNLLFSYQPPQSSSRFSVSQTGDLTVTNVQRSDVGYYICQTLNVAGSIITKAYLEVTDVIADRPPPVIRQGPVNQTVAVDGTLTLSCVATGSPVPTILWRKDGVLVSTQDSRIKQLESGVLQIRYAKLGDTGRYTCTASTPSGEATWSAYIEVQEF
size of bovine organoids [1]: larger bovine organoids; also recorded: increased the size
NOTCH4-ICD in the cytoplasmic fraction (NOTCH4): lower; also recorded: reduced
HES1 protein in the nuclear fraction (NOTCH4; relative to control treatment): lower levels; also recorded: decreased
NOTCH4-ICD (N4-ICD) protein in the nuclear fraction (NOTCH4; relative to control treatment): lower levels; also recorded: decreased
mammary gland area (size) (mammary gland): significantly greater area
number of primary (1°) branches (mammary gland): higher number
overall branching density (mammary gland): not different from that of controls; also recorded: no increase
secondary (2°) and tertiary (3°) branching (mammary gland): More and Increased
mammary gland area (size) (mammary gland; listed as ROBO1-Ig-5): Increased
number of primary (1°) branches (mammary gland; listed as ROBO1-Ig-5): Increased
PLIN2 protein expression (HC11 cells): approximately two-fold; also recorded: increased
WAP protein expression (HC11 cells): approximately two-fold; also recorded: increased
